Reference: publication PMC8189464, “SARS-CoV-2 Envelope (E) protein interacts with PDZ-domain-2 of host tight junction protein ZO1” (PLoS ONE, 2021)
*: point of attachment. Biotin = O=C1N[C@H]2[C@H](CS[C@H]2CCCCC(=O)*)N1

Molecular target: T1, GST-PDZ domain #2 of human Zona Occludens-1 (ZO1) (human, UniProt Q07157 186-264)
T1 construct: second PDZ domain (PDZ domain #2) of human Zona Occludens-1 (ZO1), from plasmid pGEX-ZO1-2/3; also called GST-ZO1 PDZ domain #2; GST-ZO1-PDZ-2; source: E. coli BL21(DE3), purified (glutathione-Sepharose 4B); on the array: purified GST fusion protein
T1 sequence (looked up): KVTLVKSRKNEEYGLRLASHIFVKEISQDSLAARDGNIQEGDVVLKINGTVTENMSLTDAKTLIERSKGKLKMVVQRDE
Test: AlphaScreen or HTRF; GST protein pre-bound to anti-GST-terbium donor antibody, biotinylated peptide pre-bound to streptavidin-d2 acceptor; serial 1:2 dilutions of both in a matrix; 25 mM HEPES pH 7.4, 150 mM NaCl, 5 mM MgCl2, 0.005% Tween-20; 1 hr incubation; one-site saturation binding fit; Kd at 3 nM GST-ZO1 PDZ domain #2
Conditions: both partners purified

Biotin-SRVKNLNSSRVPDLLV-OH (also called WT E peptide; Bt-WT peptide) [SARS-CoV-2 E WT peptide (Biotin-SRVKNLNSSRVPDLLV-COOH)] was tested, and the Kd was 29 nM.
